Source: patent publication US20190127480A1 (Regeneron, published 2019)
Positions count from the first letter of the chain named. Where two headings read alike, the source gives them in different places. Each block holds one binder with its values, some of them ahead of it.

Tests used:
[1] = target: T1, human CD3 expressed on cells (Jurkat cells; human T-cells of PBMC) (human, UniProt P09693 23-182; P20963 22-164); assay: cell-based or functional assay
[2] = target: T1, human CD3 expressed on cells (Jurkat …); assay: cell-based or functional assay; remark: listed apart in the source
[3] = target: cynomolgus monkey CD3 expressed on monkey T-cells (PBMCs) (cynomolgus monkey, UniProt Q95LI5 22-198; Q95LI8 22-171); assay: cell-based or functional assay
Sequence of cynomolgus monkey CD3 expressed on monkey T-cells (PBMCs) (Q95LI5 22-198, chain 1 of 2): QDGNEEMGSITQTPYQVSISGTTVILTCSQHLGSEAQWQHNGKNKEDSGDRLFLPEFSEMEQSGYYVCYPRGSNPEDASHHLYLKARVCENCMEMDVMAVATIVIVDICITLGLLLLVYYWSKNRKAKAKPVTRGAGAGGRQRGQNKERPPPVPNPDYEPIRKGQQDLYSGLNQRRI
Sequence of cynomolgus monkey CD3 expressed on monkey T-cells (PBMCs) (Q95LI8 22-171, chain 2 of 2): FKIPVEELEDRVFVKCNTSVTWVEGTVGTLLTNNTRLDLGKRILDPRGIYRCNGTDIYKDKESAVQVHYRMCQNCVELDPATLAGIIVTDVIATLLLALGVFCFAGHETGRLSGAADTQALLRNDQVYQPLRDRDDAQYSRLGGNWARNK

[4] = target: T1, human CD3 expressed on cells (Jurkat …); assay: FACS titration on Jurkat cells, monovalent 1-arm antibody
Experimental: (§1) FACS data was acquired using the following protocol: Cells at 2×10⁵ per well were incubated with serially diluted antibodies for 30 min on ice. Post incubation, cells were washed and secondary antibody was added and incubated for an additional 30 minutes. After incubation, cells were washed, re-suspended in cold PBS containing 1% BSA and analyzed by flow cytometry with viable Jurkat cells gated by side and forward scatters. The EC₅₀s for cell binding titration were determined using Prism software with values calculated using a 4-parameter non-linear regression analysis.

[5] = target: T1, human CD3 expressed on cells (Jurkat …); assay: cell-based or functional assay; remark: listed apart in the source
[6] = target: T1, human CD3 expressed on cells (Jurkat …); assay: cell-based or functional assay; remark: listed apart in the source
[7] = target: T1, human CD3 expressed on cells (Jurkat …); assay: FACS titration on Jurkat cells (CD3+ human T-cell line)
Experimental: as §1

T1 sequence (chain, as listed by the source, chain 1 of 4): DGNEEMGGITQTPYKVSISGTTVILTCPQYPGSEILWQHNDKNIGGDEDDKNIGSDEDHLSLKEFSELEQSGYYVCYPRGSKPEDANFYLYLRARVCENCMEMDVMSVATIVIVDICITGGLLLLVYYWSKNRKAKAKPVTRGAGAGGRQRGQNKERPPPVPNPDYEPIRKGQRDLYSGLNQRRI
T1 sequence (chain, as listed by the source, chain 2 of 4): as the sequence (Q95LI8 22-171, chain 2 of 2) above, with V5I, K15N, V20I, T32S, N33D, N34I, A64T, N74S, L83V, R141H counted along it
T1 sequence (P09693 23-182, chain 3 of 4): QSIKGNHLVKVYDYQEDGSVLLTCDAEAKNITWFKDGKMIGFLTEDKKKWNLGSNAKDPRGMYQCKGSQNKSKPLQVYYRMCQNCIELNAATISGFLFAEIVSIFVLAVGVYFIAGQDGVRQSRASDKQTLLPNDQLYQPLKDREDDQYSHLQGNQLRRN
T1 sequence (P20963 22-164, chain 4 of 4): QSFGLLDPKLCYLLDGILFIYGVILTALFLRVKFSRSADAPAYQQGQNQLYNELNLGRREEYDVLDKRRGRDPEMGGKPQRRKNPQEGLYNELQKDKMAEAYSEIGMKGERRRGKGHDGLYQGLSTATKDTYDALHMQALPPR

B1: H1H7223P (antibody, human IgG1, V domains shown)
VH: QVQLVESGGGLVQPGRSLRLSCAASGFTFADYTMHWVRQAPGKGLEWVSDISWNSGSMGYADSVKGRFTISRDNAKKSLYLQMNSLRTEDTALYYCAKDGSGYGKYFFYAMDVWGQGTTVTVSS
VL: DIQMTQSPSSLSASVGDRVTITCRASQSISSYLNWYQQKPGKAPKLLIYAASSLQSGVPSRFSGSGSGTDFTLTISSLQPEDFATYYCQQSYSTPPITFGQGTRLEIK
notes: Monovalent 1-arm format: second Fab removed, only the Fc portion (CH2-CH3) expressed; human IgG1 Fc; tied by the numerical identifier; also called H1H7223B
- EC50 [M] hPBMC Proliferation [1]: 1.07e-12 M
- U937 Cytotoxicity Human T-cells [2]: 5.3 pM
- EC50 [M] mfPBMC Proliferation [3]: 6.75e-11 M
- EC50 [4]: 937 pM

B4: H1H7198P (antibody, human IgG1, V domains shown)
VH: EVQLVESGGGLVQPGRSLRLSCAASGFTFADYTMHWVRQVPGKGLEWVSDISWNSGSKDYADSVKGRFTISRDNAKNFLYLQMNSLRAEDTALYYCVKYGSGYGKFYFYAMDVWGQGTTVTVSS
VL: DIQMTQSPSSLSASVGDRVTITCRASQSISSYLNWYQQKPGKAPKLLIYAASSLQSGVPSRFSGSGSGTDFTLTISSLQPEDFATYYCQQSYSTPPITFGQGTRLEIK
notes: Monovalent 1-arm format: second Fab removed, only the Fc portion (CH2-CH3) expressed; human IgG1 Fc; tied by the numerical identifier; also called H1H7198B
- EC50 [M] hPBMC Proliferation [1]: 2.55e-12 M
- U937 Cytotoxicity Human T-cells [2]: 5.21 pM
- EC50 [M] mfPBMC Proliferation [3]: 2.29e-12 M
- EC50 [4]: 726 pM

B5: H1H5786B (antibody, human IgG1, V domains shown)
VH: QVQLVESGAEVKKPGASVKVSCKTSGYTFTGYYMHWIRQAPGQGLEWMGWINPKSGGTNYAQKFQGRVTMTRDTSISTAYMELSRLRSDDMAVYYCARMGDGAVFDFWGQGTLVTVSS
VL: AIQMTQSPSSLSASVGDRVTITCRASQRISSFLNWYQQKPGKAPKLLIYTASNLQNGVPSRFSGSGSGTDFTLTISSLQPEDFATYYCQQSYRTPLTFGGGTKVEIKR
notes: H1H: human IgG1 Fc
- U937 Cytotoxicity Human T-cells [5]: 61 pM
- EC50 [M] hPBMC Proliferation [6]: 1.79e-12 M
- EC50 [7]: 1100 pM

B7: H1H5790B (antibody, human IgG1, V domains shown)
VH: EVQLVESGGGVVQPGRSLRLSCAASGFTFSYYGMHWVRQAPGKGLEWVAVISFDGKNKYYADSVMGRFTISRDNSKNTLYLQMNSLRAEDSAVFFCARSYDILTGYGAGYSYHYGMDVWGQGTTVTVSS
VL: B5 VL
notes: H1H: human IgG1 Fc
- U937 Cytotoxicity Human T-cells [5]: 87.1 pM
- EC50 [M] hPBMC Proliferation [6]: 2.71e-12 M
- EC50 [7]: 3550 pM

B9: H1H5795B (antibody, human IgG1, V domains shown)
VH: B5 VH with Q1E, T28S, T30I, M34I, I37M, G57V, K63R, R87K, M91T, Y95F
VL: B5 VL with A1D, M4L, A43V, S65T, E105D
notes: H1H: human IgG1 Fc
- U937 Cytotoxicity Human T-cells [5]: 67.4 pM
- EC50 [M] hPBMC Proliferation [6]: 3.09e-12 M
- EC50 [7]: 2040 pM

B11: H1H5791B (antibody, human IgG1, V domains shown)
VH: B5 VH with F29L, T30S, I37M, G57V, G66D, T69A, M91T, G109A
VL: B5 VL with A1D, M4L, V104L
notes: H1H: human IgG1 Fc
- U937 Cytotoxicity Human T-cells [5]: 80.1 pM
- EC50 [M] hPBMC Proliferation [6]: 1.75e-12 M
- EC50 [7]: 3770 pM

B12: H1H5763P (antibody, human IgG1, V domains shown)
VH: QVQLVESGGGVVQPGRSLRLSCAASGLTFSSYGMHWVRQAPGKGLEWVAVISYDGSNKYYTDSVKGRFTISRDNSKNTLYLQMNSLRAEDTAVYYCAKGAMVRGVPYNYYYGMDVWGQGTTVTVSS
VL: DIQMTQSPSSLSASVGDRVTITCRASQGIRNDLGWYQQKPGKAPKRLIYAASSLQSGVPSRFSGSGSGTEFTLTISSLQPEDFATYYCLQHNSYPYTFGQGTKLEIK
notes: H1H: human IgG1 Fc
- EC50 [M] hPBMC Proliferation [6]: 3.11e-13 M
- EC50 [7]: 2760 pM

B14: H1H7269P (antibody, human IgG1, V domains shown)
VH: QVQLVESGGGLVQPGRSLRLSCAASGFKFDDYTMHWVRQGPGKGLEWVSDISWSGGSIDYTDSVKGRFSISRDNAKNSLYLQMNSLRVEDTALYYCVKDKSGYGKYSYGLDVWGQGTTVTVSS
VL: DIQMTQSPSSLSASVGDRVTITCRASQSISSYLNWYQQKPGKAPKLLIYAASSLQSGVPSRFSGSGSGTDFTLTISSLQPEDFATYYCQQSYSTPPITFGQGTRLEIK
notes: Monovalent 1-arm format: second Fab removed, only the Fc portion (CH2-CH3) expressed; human IgG1 Fc; tied by the numerical identifier; also called H1H7269B
- EC50 [M] hPBMC Proliferation [1]: 1.15e-12 M
- U937 Cytotoxicity Human T-cells [2]: 10.8 pM
- EC50 [4]: 1950 pM

B15: H1H5793B (antibody, human IgG1, V domains shown)
VH: QVQLVQSGTEVKKPGASMKVSCKASGYTFTGYYIHWVRQAPGQGLEWMGWINPNSDVTKYAQKFQGRVTLTRDTSISAAYIDLSRLRSDDTAIYYCARMGDGAVFDYWGQGTLVTVSS
VL: DIQLTQSPSSLSASVGDRVTITCRASQRISSYLNWYQQKPGKAPKVLISVASSLQSGVPSRFSGSGFGTDFTLTISSLQPEDSASYYCQQSYNTPLTFGGGTKLEIKR
notes: H1H: human IgG1 Fc
- U937 Cytotoxicity Human T-cells [5]: 88.5 pM
- EC50 [M] hPBMC Proliferation [6]: 3.28e-12 M
- EC50 [7]: 4620 pM

B17: H1H5752P (antibody, human IgG1, V domains shown)
VH: QVQLVESGGGVVQPGRSLRPSCAASGFSFRDYGMHWVRQAPGKGLEWMAHIWYNGKNKYYADSVKGRFTISRDNSKNTLYLQMNSLRPEDTAVYYCARDGVSARGTPFDYWGQGTLVTVSS
VL: ETTLTQSPAFMSAAPGDKVSISCIASQYIDDDVNWYQQKPGETAIFIIQEASTLVPGISPRFSGSGYGTHFTLTINNIDSEDAAFYFCLQHDNFPYTFGQGTKLEIK
notes: H1H: human IgG1 Fc
- U937 Cytotoxicity Human T-cells [5]: 18.5 pM
- EC50 [M] hPBMC Proliferation [6]: 1.09e-12 M
- EC50 [7]: 343 pM

B19: H1H5755B (antibody, human IgG1, V domains shown)
VH: EVQLVESGGGVVQPGRSLRLSCAASGFTFSNYGMHWVRQAPGKGLEWVTVILHDGSYKYYADSVKGRFTISRDNSKNTLHLQMNSLRTEDTAVYYCAKGPMFRGVPYNHYYGMDVWGQGTTVTVSS
VL: DIQMTQSPSSLSASVGDRVTITCRASQGIRNDLGWYQQKPGKAPKRLIYAASSLQSGVSSRFSGSGSGTEFTLTISSLQPEDFATYYCLQHNSYPYTFGQGTKVEIKR
notes: H1H: human IgG1 Fc
- U937 Cytotoxicity Human T-cells [5]: 51.6 pM
- EC50 [M] hPBMC Proliferation [6]: 4.24e-12 M
- EC50 [7]: 1230 pM

B20: H1H5757B (antibody, human IgG1, V domains shown)
VH: B19 VH with N31S, Y57N, K58R, Y60S, H80Y, S85I, T88V, A97T, P100A, F102V
VL: B19 VL with S53I, S59P, V104L
notes: H1H: human IgG1 Fc
- U937 Cytotoxicity Human T-cells [5]: 96.5 pM
- EC50 [M] hPBMC Proliferation [6]: 4.86e-12 M
- EC50 [7]: 3380 pM

B21: H1H5758B (antibody, human IgG1, V domains shown)
VH: B19 VH with N31S, Y57N, K58R, H80Y, S85I, T88A, A97T, P100A, F102V
VL: B19 VL with Q3V, S53N, S59P, V104L
notes: H1H: human IgG1 Fc
- U937 Cytotoxicity Human T-cells [5]: 88600 pM
- EC50 [M] hPBMC Proliferation [6]: 2.13e-12 M
- EC50 [7]: 1900 pM

Now from value to binder, other results behind:

- EC50 [M] hPBMC Proliferation [1]: 1.64e-12 M
- EC50 [M] mfPBMC Proliferation [3]: 4.97e-13 M
- EC50 [4]: 3240 pM
B2: H1H7203P (antibody, human IgG1, V domains shown)
VH: B4 VH with E6Q, V40T, D50G, F78S, A88T, V97A, K105R, F106Y, Y107F
VL: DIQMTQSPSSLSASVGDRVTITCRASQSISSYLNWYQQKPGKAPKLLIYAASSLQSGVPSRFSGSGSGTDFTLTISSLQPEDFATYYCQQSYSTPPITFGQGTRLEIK
notes: Monovalent 1-arm format: second Fab removed, only the Fc portion (CH2-CH3) expressed; human IgG1 Fc; tied by the numerical identifier; also called H1H7203B
- U937 Cytotoxicity Human T-cells [2]: 5.47 pM

- EC50 [M] hPBMC Proliferation [1]: 2.75e-12 M
- EC50 [M] mfPBMC Proliferation [3]: 2.81e-13 M
- EC50 [4]: 701 pM
B3: H1H7211P (antibody, human IgG1, V domains shown)
VH: EVQLVESGGGLVHPGRSLRLSCTASGFKFADYTMHWVRQAPGKGLEWVSDISWNSGSKGYADSVKGRFTISRDNDKNSLYLQMNSLRGEDTALYYCAKDGSGYGRFHFYAIDVWGQGTTVTVSS
VL: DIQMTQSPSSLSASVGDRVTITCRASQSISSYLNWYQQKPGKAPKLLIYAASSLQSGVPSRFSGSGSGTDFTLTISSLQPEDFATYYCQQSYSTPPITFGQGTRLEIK
notes: Monovalent 1-arm format: second Fab removed, only the Fc portion (CH2-CH3) expressed; human IgG1 Fc; tied by the numerical identifier; also called H1H7211B
- U937 Cytotoxicity Human T-cells [2]: 7.89 pM

- EC50 [M] hPBMC Proliferation [6]: 6.47e-12 M
- EC50 [7]: 5870 pM
B6: H1H5792B (antibody, human IgG1, V domains shown)
VH: QVQLVESGGGVVQPGRSLRLSCAASGFTFSSYGMHWVRQAPGKGLEWVSTISFDGSNKYYADSVKGRFTISRDNSKNTLYLQMNSLRPEDTAVYYCAKGGGTSGSYFYYGMDVWGQGTTVTVSS
VL: B5 VL with V104L
notes: H1H: human IgG1 Fc
- U937 Cytotoxicity Human T-cells [5]: 140 pM

- EC50 [M] hPBMC Proliferation [6]: 1.09e-12 M
- EC50 [7]: 15500 pM
B8: H1H5801B (antibody, human IgG1, V domains shown)
VH: QVQLVQSGGGVVQPGGSLRLSCAASGFTFDDYAMHWVRQAPGKGLEWVSLISGDGGSTYYADSVKGRFTISRDNSKNSLYLQMNSLRTEDTALYYCAKDDSSSSWYYYYYGMDVWGRGTTVTVSS
VL: B15 VL with L4M, F67S, S83F, L104V
notes: H1H: human IgG1 Fc
- U937 Cytotoxicity Human T-cells [5]: 92.3 pM

- EC50 [M] hPBMC Proliferation [6]: 2.59e-12 M
- EC50 [7]: 5570 pM
B10: H1H5798B (antibody, human IgG1, V domains shown)
VH: QVQLVQSGGGLVKPGGSLRLSCAASGFTFSSYDMSWVRQAPGKGLEWVSYISSSGNTIHYADSVKGRFTISRDNSKNSLYLQMNSLRAEDTAVYYCAKAGPATVTRRYYYYYGLDVWGQGTTVTVSS
VL: B5 VL with A1D, Q3V, G16R, F32Y, Y36F, L46V, N53S
notes: H1H: human IgG1 Fc
- U937 Cytotoxicity Human T-cells [5]: 181 pM

- EC50 [M] hPBMC Proliferation [6]: 9.14e-11 M
B13: H1H5753B (antibody, V domains shown)
VH: QVQLVESGGGLVQPGGSLRLSCAASYFTFSSFAMNWVRQAPGQGLEWVSAISGRVSAISGSGGITYYADSVKGRFIISRDNSKNTLYLQMSGLRAEDTAVYYCAKGPYLTTVTPFDYWGQGTLVTVSS
VL: DIQLTQSPSSVSASVGDRVTITCRASQGISSWLAWYQQKPGKAPKLLIYAVSSLQNGVPSRFSGSGSGTDFTLTISSLQPEDFATYYCQQANSFPFTFGPGTKLEIK
- U937 Cytotoxicity Human T-cells [5]: 379 pM

- EC50 [M] hPBMC Proliferation [6]: 1.07e-11 M
- EC50 [7]: 39600 pM
B16: H1H5797B (antibody, human IgG1, V domains shown)
VH: B15 VH with M18V, I34M, K59N, A78T
VL: B15 VL with L4M, F67S, S83F, L104V
notes: H1H: human IgG1 Fc
- U937 Cytotoxicity Human T-cells [5]: 576 pM

- EC50 [M] hPBMC Proliferation [6]: 5.17e-12 M
- binding result [7]: no binding
B18: H1H5782P (antibody, human IgG1, V domains shown)
VH: EVQLVESGGGLVQPGRSLRLSCAASGFTFDDYAMHWVRQAPGKGLEWVSGISWNSGSKDYADSVKGRFTISRDNTRNSLFLQMNSLRTEDTALYYCAKDKSGYGSFYYGMDVWGQGTTVTVSS
VL: not shown
notes: H1H: human IgG1 Fc
- U937 Cytotoxicity Human T-cells [5]: 5.18 pM
